According to PMC6873191:

Columns and labels:
[1] = target: full-length ClpC fused to the T25 fragment of B. pertussis adenylate cyclase (UniProt P37571); assay: bacterial two-hybrid interaction assay (β-gal readout); details: E. coli Δcya strain DHM1, Gp53 fused to T18, ClpC fused to T25, n = 3; for percent of parent: parent: 100; for response: parent: est. 21000, read off a plot
[2] = target: C-terminal FLAG-tagged ClpC (B. subtilis) (UniProt P37571)
[3] = target: full-length ClpC fused to the T25 fragment of B. pertussis adenylate cyclase (B. subtilis) (UniProt P37571); assay: two-hybrid; modified bacterial two-hybrid: MecA-T18 and ClpC-T25 in E. coli DHM1 that holds a plasmid with Gp53 under the L-arabinose-inducible araB promoter; β-gal activity with and without L-arabinose

**Q.** Which results are given for “Gp53 (WT) fused to a fragment of B. pertussis adenylate cyclase for the bacterial two-hybrid assay R94E”?
**A.** percent of parent [1]: 37%; response [1]: 7700 Miller Units

**Q.** “Gp53 (WT) fused to a fragment of B. pertussis adenylate cyclase for the bacterial two-hybrid assay R94A” was tested. Which response [1] did it give?
**A.** The response was 21000 Miller Units.

**Q.** Which β-casein (3 μM) left intact after 90 min of in vitro degradation by ClpCP with MecA, with Gp53 against without Gp53 [2] does the source give for “N-terminal His6-tagged Gp53 of phage SPO1 (natural protein)” here?
**A.** The β-casein (3 μM) left intact after 90 min of in vitro degradation by ClpCP with MecA, with Gp53 against without Gp53 was 10 fold.

**Q.** With “Gp53 (WT) fused to a fragment of B. pertussis adenylate cyclase for the bacterial two-hybrid assay K101E” as the substance, how does the response [1] read?
**A.** The response was 23000 Miller Units.

**Q.** Which fold reduction of the β-gal activity of MecA-ClpC on induction of Gp53 [3] does the source give for “Gp53 expressed from pSCBAD-Gp53 under the L-arabinose-inducible araB promoter (natural protein)” here?
**A.** The fold reduction of the β-gal activity of MecA-ClpC on induction of Gp53 was 3 fold.

**Q.** With “Gp53 (WT) fused to a fragment of B. pertussis adenylate cyclase for the bacterial two-hybrid assay L95A” as the substance, how does the percent of parent [1] read?
**A.** The percent of parent was 48%.

**Q.** What about the response [1] of the same substance?
**A.** The response was 10000 Miller Units.

**Q.** With “Gp53 (WT) fused to a fragment of B. pertussis adenylate cyclase for the bacterial two-hybrid assay K101A” as the substance, how does the response [1] read?
**A.** The response was 22000 Miller Units.

**Q.** For “Gp53 (WT) fused to a fragment of B. pertussis adenylate cyclase for the bacterial two-hybrid assay L83A”, which response [1] is on record?
**A.** The response was 20000 Miller Units.

**Q.** With “Gp53 (WT) fused to a fragment of B. pertussis adenylate cyclase for the bacterial two-hybrid assay V87A” as the substance, how does the percent of parent [1] read?
**A.** Its percent of parent is 44%.

**Q.** What about the response [1] of the same substance?
**A.** The response was 9300 Miller Units.
